# In US20200080117A1 (UNIVERSIDAD POLIT CNICA DE MADRID, published 2020):
# T1: NifU (A. vinelandii NifU expressed in yeast strain SB33Y as SU9-NifU) (Azotobacter vinelandii, UniProt P05340 2-312)
# T1 sequence: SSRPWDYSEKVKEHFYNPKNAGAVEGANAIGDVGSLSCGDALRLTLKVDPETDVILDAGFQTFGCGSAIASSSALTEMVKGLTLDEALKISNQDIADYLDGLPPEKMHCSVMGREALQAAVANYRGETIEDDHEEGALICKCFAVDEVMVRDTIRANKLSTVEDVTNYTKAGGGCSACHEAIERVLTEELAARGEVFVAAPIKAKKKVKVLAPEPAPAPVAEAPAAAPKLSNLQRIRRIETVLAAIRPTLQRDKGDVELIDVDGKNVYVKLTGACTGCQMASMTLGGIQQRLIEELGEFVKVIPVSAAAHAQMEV
# B1: TS-NifB^USF (SU9-Twin-Strep-NifBMi purified from yeast strain SB33Y, co-expressed with NifU, NifS and FdxN-HA) (enzyme)
# chain: not shown
# notes: Same polypeptide as m1, purified from SB33Y; As isolated it carries about 6.1 Fe per monomer as [4Fe-4S] clusters and is active; The range 68-405 was derived from the printed N-terminus SSSAW; also called SU9-TS-NifBMi
# Biological target: T1, NifU (A. vinelandii NifU expressed in …)
# Test: co-purification on Strep-Tactin column from SB33Y extract, immunoblot
binder,measurement,value
B1,binding result,no binding
